In publication PMC7749166 (Communications Biology, 2020):

Target: T1, C5aR^D282A (Homo sapiens, UniProt P21730, D282A)
T1 construct: Flag (N); His8 (C); made in house; host or cells: HEK-293S cells (BacMam baculovirus)
T1 sequence (P21730 1-350 D282A): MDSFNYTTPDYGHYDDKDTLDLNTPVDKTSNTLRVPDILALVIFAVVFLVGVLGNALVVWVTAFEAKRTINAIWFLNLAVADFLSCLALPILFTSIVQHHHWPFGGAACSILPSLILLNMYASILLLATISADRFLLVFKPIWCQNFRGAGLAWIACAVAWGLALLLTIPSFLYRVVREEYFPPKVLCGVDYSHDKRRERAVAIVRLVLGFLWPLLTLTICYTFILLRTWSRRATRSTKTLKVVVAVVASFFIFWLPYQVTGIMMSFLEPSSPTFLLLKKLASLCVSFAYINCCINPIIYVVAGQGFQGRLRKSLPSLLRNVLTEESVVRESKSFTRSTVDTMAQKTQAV
Experiment: 35S-GTPγS binding assay, D282A mutant
Assay type: biochemical
Settings: increased concentration of C5a, Fig. S7
Procedure: Mutant variants (D282A, D282N, and R175V/Y258V) were generated based on the wtC5aR construct and fully sequenced. Mutant variants were expressed following the same method as for wtC5aR except for some modifications. HEK-293S cells expressing each mutant were pelleted by centrifugation and resuspended in 20 ml buffer containing 20 mM HEPES pH 7.5, 100 mM NaCl, 0.2 μg ml^−1 leupeptin, and 150 μg ml^−1 benzamidine. After 20 min incubation at 25 °C, 20 ml 2X solubilization buffer containing 20 mM HEPES pH 7.5, 100 mM NaCl, 1% dodecyl-maltoside (DDM), 0.2% cholesterol hemisuccinate (CHS), 20% glycerol, 0.2 μg ml^−1 leupeptin, 150 μg ml^−1 benzamidine, and 5 U Salt Active Nuclease (Sigma) was added. Cell membranes were solubilized for 1.5 h at 4 °C. […]
For the ^35S-GTPγS binding assays, the membrane of HEK293S GnTI^− cells expressing wtC5aR (~200 µg ml^−1) or mutant variants was incubated with 200 nM purified Gi protein for 30 min on ice in buffer containing 20 mM HEPES pH 7.5, 100 mM NaCl, 5 mM MgCl2, 3 μg ml^−1 BSA, 0.1 μM TCEP, and 5 μM GDP to get the receptor and Gi complex. […] The radiation of bound ^35S-GTPγS was measured on a Beckman LS6500 scintillation counter to determine the binding of ^35S-GTPγS to Gi induced by C5aR activation. […]

B1: C5a: C5a, a large 74-amino acid glycoprotein; endogenous ligand of C5aR (His6-tag at N-terminal end for AFM tips) (protein)
chain: TLQKKIEEIAAKYKHSVVKKCCYDGACVNNDETCEQRAARISLGPRCIKAFTECCVVASQLRANISHKDMQLGR
modifications: left off: His6, N-terminal, kept
Gi-protein activation vs C5aR^WT: strong reduction in the Gi-protein activation
